B1: recombinant human Mdm2 (1–125 aa) (domain or fragment, UniProt Q00987 1-125, looked up)
chain: MCNTNMSVPTDGAVTTSQIPASEQETLVRPKPLLLKLLKSVGAQKDTYTMKEVLFYLGQYIMTKRLYDEKQQHIVYCSNDLLGDLFGVPSFSVKEHRKIYTMIYRNLVVVNQQESSDSGTSVSEN
B2: recombinant PD-L1 (18–134 aa) (domain or fragment)
chain: AFTVTVPKDLYVVEYGSNMTIECKFPVEKQLDLAALIVYWEMEDKNIIQFVHGEEDLKVQHSSYRQRARLLKDQLSLGNAALQITDVKLQDAGVYRCMISYGGADYKRITVKVNAPY

Legend:
Settings in all cases: both partners purified
wt-p53 (1–321 aa) = target: T1, wt-p53 (1–321 aa) (human, UniProt P04637 1-321); experiment: ITC; Microcal iTC200, 25 °C; 0.012–0.030 mM p53 in the cell, 0.1–0.3 mM Mdm2 or MdmX in the syringe; 20 injections; single set of sites; in duplicate
T1 construct: p53, human, residues 1-321, cloned into pET23; also called p53-wt; source: E. coli BL21 (DE3) RIL, purified (Ni-NTA, gel filtration)
T1 sequence (P04637 1-321): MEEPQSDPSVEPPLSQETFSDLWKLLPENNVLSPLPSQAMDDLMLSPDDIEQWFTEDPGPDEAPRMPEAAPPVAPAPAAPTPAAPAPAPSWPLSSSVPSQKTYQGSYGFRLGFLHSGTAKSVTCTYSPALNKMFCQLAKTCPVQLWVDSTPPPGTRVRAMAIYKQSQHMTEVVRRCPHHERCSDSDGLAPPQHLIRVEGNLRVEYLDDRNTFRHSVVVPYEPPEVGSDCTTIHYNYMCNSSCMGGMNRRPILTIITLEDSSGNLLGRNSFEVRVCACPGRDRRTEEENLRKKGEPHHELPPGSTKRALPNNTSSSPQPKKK

(N66A)PD-1 = (N66A)PD-1 (human, UniProt Q15116 33-150, C93S | N66A, RED-NHS fluorescent label (in the MST); uniformly 15N-labelled (in the NMR)); experiment: MST; PD-1 or mutant labelled with RED-NHS, kept at 20 nM; unlabelled PD-L1 diluted from 183 µM to 416 nM; 50 mM Tris-HCl pH 7.6, 150 mM NaCl, 10 mM MgCl2, 0.05% Tween-20; 2 h at RT
Sequence of (N66A)PD-1 (Q15116 33-150 N66A/C93S): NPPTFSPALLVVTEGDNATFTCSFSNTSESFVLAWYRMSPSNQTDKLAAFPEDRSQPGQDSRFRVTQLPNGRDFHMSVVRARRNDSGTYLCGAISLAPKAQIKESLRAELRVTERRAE

[1] = target: human wt-PD-1 (33–150 aa, C93S mutation) (human, UniProt Q15116 33-150, C93S, RED-NHS fluorescent label (in the MST); uniformly 15N-labelled (in the NMR)); experiment: as above
Sequence of human wt-PD-1 (33–150 aa, C93S mutation) (Q15116 33-150 C93S): as the sequence (Q15116 33-150 N66A/C93S) above, with A34N counted along it

Binder	Kd (wt-p53 (1–321 aa))	Kd ((N66A)PD-1)	Kd [1]
B1	0.6 ± 0.02 µM	–	–
B2	–	> 100 µM	8 µM

Source: article PMC7412237 (Molecules, 2020)
